# Values joined by “and” are separate entries in the source; they are usually repeats but may differ in a detail not shown here. Equal values may be shown once.
# B1: OCT1 (Homo sapiens) (protein)
# chain: MPTVDDILEQVGESGWFQKQAFLILCLLSAAFAPICVGIVFLGFTPDHHCQSPGVAELSQRCGWSPAEELNYTVPGLGPAGEAFLGQCRRYEVDWNQSALSCVDPLASLATNRSHLPLGPCQDGWVYDTPGSSIVTEFNLVCADSWKLDLFQSCLNAGFLFGSLGVGYFADRFGRKLCLLGTVLVNAVSGVLMAFSPNYMSMLLFRLLQGLVSKGNWMAGYTLITEFVGSGSRRTVAIMYQMAFTVGLVALTGLAYALPHWRWLQLAVSLPTFLFLLYYWCVPESPRWLLSQKRNTEAIKIMDHIAQKNGKLPPADLKMLSLEEDVTEKLSPSFADLFRTPRLRKRTFILMYLWFTDSVLYQGLILHMGATSGNLYLDFLYSALVEIPGAFIALITIDRVGRIYPMAMSNLLAGAACLVMIFISPDLHWLNIIIMCVGRMGITIAIQMICLVNAELYPTFVRNLGVMVCSSLCDIGGIITPFIVFRLREVWQALPLILFAVLGLLAAGVTLLLPETKGVALPETMKDAENLGRKAKPKENTIYLKVQTSEPSGT
# B2: OCT3 (Homo sapiens) (protein)
# chain: MPSFDEALQRVGEFGRFQRRVFLLLCLTGVTFAFLFVGVVFLGTQPDHYWCRGPSAAALAERCGWSPEEEWNRTAPASRGPEPPERRGRCQRYLLEAANDSASATSALSCADPLAAFPNRSAPLVPCRGGWRYAQAHSTIVSEFDLVCVNAWMLDLTQAILNLGFLTGAFTLGYAADRYGRIVIYLLSCLGVGVTGVVVAFAPNFPVFVIFRFLQGVFGKGTWMTCYVIVTEIVGSKQRRIVGIVIQMFFTLGIIILPGIAYFIPNWQGIQLAITLPSFLFLLYYWVVPESPRWLITRKKGDKALQILRRIAKCNGKYLSSNYSEITVTDEEVSNPSFLDLVRTPQMRKCTLILMFAWFTSAVVYQGLVMRLGIIGGNLYIDFFISGVVELPGALLILLTIERLGRRLPFAASNIVAGVACLVTAFLPEGIAWLRTTVATLGRLGITMAFEIVYLVNSELYPTTLRNFGVSLCSGLCDFGGIIAPFLLFRLAAVWLELPLIIFGILASICGGLVMLLPETKGIALPETVDDVEKLGSPHSCKCGRNKKTPVSRSHL
# Assays:
# Alpha-1 adrenoreceptor = conditions: cited from earlier work
# OCT2 (wild-type) = target: T1, OCT2 (wild-type) (Homo sapiens, UniProt O15244); assay: Stereoselective uptake into OCT2 (wild-type)-overexpressing HEK293 cells; conditions: human, 100 μM racemic substance, two minutes, uptake ratio of enantiomers, given as for (R)
# T1 sequence (O15244 1-555 S270A): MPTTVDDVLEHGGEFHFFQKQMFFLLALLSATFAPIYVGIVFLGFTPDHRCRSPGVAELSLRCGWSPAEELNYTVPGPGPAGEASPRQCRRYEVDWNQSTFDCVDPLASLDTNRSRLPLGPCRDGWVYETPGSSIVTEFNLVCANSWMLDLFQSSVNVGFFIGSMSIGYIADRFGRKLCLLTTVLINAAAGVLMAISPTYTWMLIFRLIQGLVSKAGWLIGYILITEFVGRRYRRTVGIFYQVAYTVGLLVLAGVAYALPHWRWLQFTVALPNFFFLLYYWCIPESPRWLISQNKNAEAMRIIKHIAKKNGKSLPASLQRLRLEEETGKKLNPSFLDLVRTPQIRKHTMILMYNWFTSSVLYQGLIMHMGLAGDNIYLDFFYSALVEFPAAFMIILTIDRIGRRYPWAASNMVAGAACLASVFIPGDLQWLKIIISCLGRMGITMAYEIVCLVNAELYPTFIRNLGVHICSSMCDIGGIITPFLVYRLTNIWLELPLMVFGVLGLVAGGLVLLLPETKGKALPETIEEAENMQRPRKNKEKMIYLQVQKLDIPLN
# OCT3 = target: T2, OCT3 (Homo sapiens, UniProt O75751); assay: Stereoselective uptake into OCT3-overexpressing HEK293 cells; conditions: OCT3; ratio between enantiomers, given as for (R) or for 1;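 note: intracellular accumulation in HEK293 cells measured by chiral HPLC-MS/MS after a 2 min substrate exposure at 37 °C, uptake normalized to total protein (bicinchoninic acid assay)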
# T2 sequence (O75751 1-556): B2 chain
# OCT2 A270S variant [1] = assay: in vitro; conditions: human, Stereoselectivity OCT2_A270S, 100 μM racemic substance, two minutes; uptake ratio of enantiomers, given as for (R)
# Alpha-2 adrenoreceptor = tested on: Alpha-2 adrenoreceptor; set-up: method as in PMID 2833972; conditions: cited from earlier work
# OCT2 A270S variant [2] = assay: Stereoselective uptake into OCT2 A270S variant-overexpressing HEK293 cells; conditions: human, HEK293 cells stably overexpressing human OCT2 A270S variant;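 note: uptake into HEK293 cells stably overexpressing human OCT2 variants, intracellular enantiomers quantified by chiral HPLC-MS/MS and normalized to total protein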
# SERT = SERT (Homo sapiens, UniProt P31645); assay: Stereoselective uptake into SERT-overexpressing HEK293 cells; conditions: SERT; ratio between enantiomers, given as for (R) or for 1;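 note: uptake into HEK293 cells stably expressing human SERT over 2 min, enantiomers measured in cell lysate by chiral HPLC-MS/MS, normalized to total protein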
# CNCC(O)c1ccc(O)c(OC)c1 = assay: cells, lysate or membranes; conditions: other: HEK293 cells overexpressing human SERT; racemic substrate, two minutes; net uptake minus empty vector control; 37.0 °C
# NCC(O)c1cccc(O)c1 = assay: cells, lysate or membranes; conditions: other: HEK293 cells overexpressing human SERT; racemic substrate, two minutes; net uptake minus empty vector control; 37.0 °C
# CNC[C@@H](O)c1ccc(O)cc1 = assay: cells, lysate or membranes; conditions: other: HEK293 cells overexpressing human SERT; racemic substrate, two minutes; net uptake minus empty vector control; 37.0 °C
# NC[C@@H](O)c1ccc(O)cc1 = assay: cells, lysate or membranes; conditions: other: HEK293 cells overexpressing human SERT; racemic substrate, two minutes; net uptake minus empty vector control; 37.0 °C
# COc1cc(C(O)CN)ccc1O = assay: cells, lysate or membranes; conditions: other: HEK293 cells overexpressing human SERT; racemic substrate, two minutes; net uptake minus empty vector control; 37.0 °C
# [3] = tested on: [H][C@](O)(CNC)c1ccc(O)cc1; assay: cells, lysate or membranes; conditions: other: HEK293 cells overexpressing human SERT; racemic substrate, two minutes; net uptake minus empty vector control; 37.0 °C
# NC[C@H](O)c1ccc(O)cc1 = assay: cells, lysate or membranes; conditions: other: HEK293 cells overexpressing human SERT; racemic substrate, two minutes; net uptake minus empty vector control; 37.0 °C
# [4] = substrate: CNCC(O)c1ccc(O)c(OC)c1; assay: cells, lysate or membranes; conditions: racemic substrate, two minutes, net uptake minus empty vector control, 37.0 °C
# [5] = substrate: CNC[C@H](O)c1cccc(O)c1; assay: cells, lysate or membranes; conditions: racemic substrate, two minutes, net uptake minus empty vector control, 37.0 °C
# [6] = substrate: NC[C@@H](O)c1ccc(O)cc1; assay: cells, lysate or membranes; conditions: racemic substrate, two minutes, net uptake minus empty vector control, 37.0 °C
# [7] = substrate: NC[C@H](O)c1ccc(O)cc1; assay: cells, lysate or membranes; conditions: racemic substrate, two minutes, net uptake minus empty vector control, 37.0 °C
# [8] = substrate: COc1cc(C(O)CN)ccc1O; assay: cells, lysate or membranes; conditions: racemic substrate, two minutes, net uptake minus empty vector control, 37.0 °C
# [9] = substrate: CNC[C@@H](O)c1cccc(O)c1; assay: cells, lysate or membranes; conditions: racemic substrate, two minutes, net uptake minus empty vector control, 37.0 °C
# [10] = substrate: [H][C@](O)(CNC)c1ccc(O)cc1; assay: cells, lysate or membranes; conditions: racemic substrate, two minutes, net uptake minus empty vector control, 37.0 °C
# [11] = substrate: CNC[C@@H](O)c1ccc(O)cc1; assay: cells, lysate or membranes; conditions: racemic substrate, two minutes, net uptake minus empty vector control, 37.0 °C
# [12] = substrate: NCC(O)c1cccc(O)c1; assay: cells, lysate or membranes; conditions: other: HEK293 cells overexpressing human OCT3; racemic substrate, two minutes; net uptake minus empty vector control; 37.0 °C
# [13] = other: HEK293 cells overexpressing human OCT1
# [14] = other: HEK293 cells overexpressing human OCT3
molecule,measurement,setting,value
NCC(O)c1cccc(O)c1 (stereo not shown) [Norphenylephrine],Enantiomeric Activity Ratio (R/S) in Receptor Binding Alpha-1,Alpha-1 adrenoreceptor,8
same,"selectivity ratio at 2 min, 100 μM",OCT2 (wild-type); Stereoselectivity OCT2_WT,1.54
same,Stereoselectivity Vmax,OCT3,3.9 fold
same,"selectivity ratio at 2 min, 100 μM",OCT2 A270S variant [1],1.46
same,Enantiomeric Activity Ratio (R/S) in Receptor Binding Alpha-2,Alpha-2 adrenoreceptor,3
NCC(O)c1ccc(O)cc1 (stereo not shown) [Octopamine],Enantiomeric Activity Ratio (R/S) in Receptor Binding Alpha-1,Alpha-1 adrenoreceptor,5
same,"selectivity ratio at 2 min, 100 μM","OCT2 (wild-type); HEK293 cells stably overexpressing human wild-type OCT2, Stereoselectivity OCT2_WT",1.74
same,"selectivity ratio at 2 min, 100 μM",OCT2 A270S variant [2],1.69
same,Stereoselectivity Vmax,SERT,2.4 fold
same,Enantiomeric Activity Ratio (R/S) in Receptor Binding Alpha-2,Alpha-2 adrenoreceptor,3
SERT (Homo sapiens),Km,CNCC(O)c1ccc(O)c(OC)c1,151 µM and 165 µM
same,Vmax,CNCC(O)c1ccc(O)c(OC)c1,87.4 pmol × mg Protein^−1 × min^−1 and 94.5 pmol × mg Protein^−1 × min^−1
same,Km,NCC(O)c1cccc(O)c1,333 µM and 277 µM
same,Vmax,NCC(O)c1cccc(O)c1,400 pmol × mg Protein^−1 × min^−1 and 508 pmol × mg Protein^−1 × min^−1
same,Km,CNC[C@@H](O)c1ccc(O)cc1,804 µM
same,Vmax,CNC[C@@H](O)c1ccc(O)cc1,491 pmol × mg Protein^−1 × min^−1
same,Km,NC[C@@H](O)c1ccc(O)cc1,42.9 µM
same,Vmax,NC[C@@H](O)c1ccc(O)cc1,104 pmol × mg Protein^−1 × min^−1
same,Km,COc1cc(C(O)CN)ccc1O,42.0 µM and 38.7 µM
same,Vmax,COc1cc(C(O)CN)ccc1O,93.6 pmol × mg Protein^−1 × min^−1 and 157 pmol × mg Protein^−1 × min^−1
same,Km,[3],528 µM
same,Vmax,[3],363 pmol × mg Protein^−1 × min^−1
same,Km,NC[C@H](O)c1ccc(O)cc1,59.6 µM
same,Vmax,NC[C@H](O)c1ccc(O)cc1,247 pmol × mg Protein^−1 × min^−1
CNC[C@H](O)c1cccc(O)c1 [Phenylephrine],Enantiomeric Activity Ratio (R/S) in Receptor Binding Alpha-1,Alpha-1 adrenoreceptor,420
same,"selectivity ratio at 2 min, 100 μM",OCT2 (wild-type); Stereoselectivity OCT2_WT,1.3
same,Stereoselectivity Vmax,OCT3,3.3 fold
same,"selectivity ratio at 2 min, 100 μM",OCT2 A270S variant [1],1.16
same,Enantiomeric Activity Ratio (R/S) in Receptor Binding Alpha-2,Alpha-2 adrenoreceptor,45
B1,Km,[4]; [13],134 µM and 146 µM
same,Km,[5]; [13],175 µM
same,Vmax,[5]; [13],1710 pmol × mg Protein^−1 × min^−1
same,Km,[6]; [13],281 µM
same,Vmax,[6]; [13],1211 pmol × mg Protein^−1 × min^−1
same,Km,[7]; [13],291 µM
same,Vmax,[7]; [13],1318 pmol × mg Protein^−1 × min^−1
same,Km,[8]; [13],806 µM and 1279 µM
same,Vmax,[8]; [13],2137 pmol × mg Protein^−1 × min^−1 and 3145 pmol × mg Protein^−1 × min^−1
same,Km,[9]; [13],178 µM
same,Vmax,[9]; [13],1578 pmol × mg Protein^−1 × min^−1
same,Km,[10]; [13],86.7 µM
same,Vmax,[10]; [13],1817 pmol × mg Protein^−1 × min^−1
same,Km,[11]; [13],111 µM
same,Vmax,[11]; [13],1348 pmol × mg Protein^−1 × min^−1
B2,Km,[12],582 µM and 498 µM
same,Km,[4]; [14],29.0 µM and 24.4 µM
same,Vmax,[4]; [14],752 pmol × mg Protein^−1 × min^−1 and 635 pmol × mg Protein^−1 × min^−1
same,Km,[5]; [14],244 µM
same,Vmax,[5]; [14],2885 pmol × mg Protein^−1 × min^−1
same,Km,[6]; [14],20.1 µM
same,Vmax,[6]; [14],1072 pmol × mg Protein^−1 × min^−1
same,Km,[7]; [14],25.1 µM
same,Vmax,[7]; [14],972 pmol × mg Protein^−1 × min^−1
same,Km,[8]; [14],75.9 µM and 62.4 µM
same,Vmax,[8]; [14],1473 pmol × mg Protein^−1 × min^−1 and 1352 pmol × mg Protein^−1 × min^−1
same,Km,[9]; [14],205 µM
same,Vmax,[9]; [14],866 pmol × mg Protein^−1 × min^−1
same,Km,[10]; [14],83.5 µM
same,Vmax,[10]; [14],2193 pmol × mg Protein^−1 × min^−1
same,Km,[11]; [14],75.3 µM
same,Vmax,[11]; [14],2090 pmol × mg Protein^−1 × min^−1

# Source: article PMC9599461, “Stereoselectivity in the Membrane Transport of Phenylethylamine Derivatives by Human Monoamine Transporters and Organic Cation Transporters 1, 2, and 3” (Biomolecules, 2022)
